Patent US20250221936A1, “ENGINEERED HEMICHANNELS, ENGINEERED VESICLES, AND USES THEREOF” (VIRGINIA TECH INTELLECTUAL PROPERTIES, INC., priority 2018, published 2025)

Tests used:
[1] = biological target: T1, Cx43 Y313-A348 peptide (Rattus norvegicus, UniProt P08050); assay: SPR of captured aCT1 with Cx43 Y313-A348 peptide; assay type: binding; details: unlinked Cx43 Y313-A348 peptide (25 µM)
T1 construct: made in house; host or cells: chemical synthesis
Method: (§1) FIGS. 28A-28D. […] (FIG. 28B) Schematic representation of the Cx43 Y313-A348 peptide synthesized for a binding surface surrogate 1 with linkable cysteine (Cys) on the amino terminus and CT. (FIG. 28C) Single letter amino acid sequence of Cx43 Y313-A348 peptide with predicted helix secondary structure underlined. (FIG. 28D) Surface Plasmon Resonance (SPR) analysis of substrate captured aCT1 (700-1000 RUs) binding recombinant Cx43 CT (100 µM, light grey), unlinked Cx43 Y313-A348 peptide (25 µM, black), and disulfide linked Cx43 Y313-A348 (25 µM, dark grey). […] Disulfide cross-linking Cx43 Y313-A348 into a looped conformation results in a loss of aCT1 binding, thus aCT1 interaction with this peptide requires a degree conformational flexibility. Cx43 Y313-A348 peptide can provide an assay for screening for novel Cx43 interacting drugs.
(§2) A […] peptide mimetic encompassing amino acids Y313 through A348 of the Cx43 CT was synthesized, containing the H1 and H2 a-helical regions (FIGS. 28A-28D). […] Cx43 Y313-A348 was designed to have cysteines at its NT and CT, which were used to disulfide cross-link the peptide into a cyclized conformation (FIG. 28B). […]

[2] = system: Cx43 Y313-A348 peptide; assay: SPR of captured aCT1 with Cx43 Y313-A348 peptide; assay type: binding; details: disulfide linked Cx43 Y313-A348 (25 µM)
Method: as §1, §2

[3] = biological target: T2, PKC-ε phosphorylation of Cx43-CT substrate at Ser368 (Rattus norvegicus, UniProt P08050); details: purified PKC enzyme and Cx43 CT substrate; cited from earlier work
T2 construct: substrate (Cx43-CT: amino acids 255 to 382); GST (N); made in house; host or cells: E. coli BL21 (Cx43 CT); PKC-ε purchased (Life, 37717L)

[4] = biological target: T3, PKC-ε (Homo sapiens, UniProt Q02156); assay: EDC cross-linking and MS/MS, PKC-ε; assay type: binding
T3 construct: purchased Life 37717L
T3 sequence (Q02156 1-737): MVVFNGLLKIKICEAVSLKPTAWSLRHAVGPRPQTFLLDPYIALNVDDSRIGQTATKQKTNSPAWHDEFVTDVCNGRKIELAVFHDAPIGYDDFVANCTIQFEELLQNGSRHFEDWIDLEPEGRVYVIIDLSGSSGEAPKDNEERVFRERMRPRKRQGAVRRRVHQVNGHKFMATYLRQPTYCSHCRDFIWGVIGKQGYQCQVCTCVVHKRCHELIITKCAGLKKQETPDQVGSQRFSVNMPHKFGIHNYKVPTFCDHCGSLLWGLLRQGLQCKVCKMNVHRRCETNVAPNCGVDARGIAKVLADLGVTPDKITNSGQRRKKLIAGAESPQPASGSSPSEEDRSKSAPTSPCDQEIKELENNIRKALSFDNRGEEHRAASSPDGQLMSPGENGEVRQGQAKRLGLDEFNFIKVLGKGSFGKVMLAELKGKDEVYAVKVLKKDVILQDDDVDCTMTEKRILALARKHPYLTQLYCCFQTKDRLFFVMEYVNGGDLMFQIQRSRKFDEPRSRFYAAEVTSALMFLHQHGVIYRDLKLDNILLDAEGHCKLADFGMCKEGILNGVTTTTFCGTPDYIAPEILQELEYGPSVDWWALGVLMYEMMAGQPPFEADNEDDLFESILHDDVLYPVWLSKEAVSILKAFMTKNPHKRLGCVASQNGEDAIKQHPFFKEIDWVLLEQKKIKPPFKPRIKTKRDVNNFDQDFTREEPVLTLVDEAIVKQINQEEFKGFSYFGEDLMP
Method: (§3) To characterize the interaction between the Cx43 CT substrate and peptides, the in vitro kinase assay was performed as above with modification and the constituents then subjected to a cross-linking reaction. The assay buffer used was 20 mM 3-(N-morpholino) propanesulfonic acid (MOPS), pH 7.2. All other reagents present in the kinase reaction were maintained as described above. The reaction was allowed to proceed at 37° C. for 15 minutes. Afterwards, the carbodiimide crosslinker 1-Ethyl-3-(3-dimethylaminopropyl) carbodiimide HCl (EDC) (Thermo, 22980) was added to each solution for a final concentration of 20 mM. The solution was allowed to cross-link for one hour at room temperature. The reaction was stopped by the addition of 4×LDS loading buffer, boiled for 5 minutes and subsequently separated by PAGE. The resulting gel was stained in Coomassie brilliant blue (Sigma, B0770) for two hours and destained in a solution of 4% methanol 7% acetic acid overnight. Gel bands were subsequently excised for mass spectrometric analysis. For the direct interaction between protein and peptides, PBS, pH 7.5 was used as the coupling buffer. The protein (50 μg/ml) and peptide (25 μM) were allowed to react at room temperature for one hour before EDAC was added to the reaction mixture. The reaction was Western blotted for Cx43, GST or NeutroAvidin. […]

[5] = biological target: T4, GST-Cx43 CT (Rattus norvegicus, UniProt P08050); assay: EDC cross-linking of kinase reaction mixtures, Cx43 CT; assay type: binding; details: 5, 10 and 25 μM
T4 construct: pGEX-6-P2 Cx43 CT amino acids 255-382; made in house; host or cells: E. coli BL21
Method: as §3

T1 sequence (P08050 with tags, fused parts or gaps): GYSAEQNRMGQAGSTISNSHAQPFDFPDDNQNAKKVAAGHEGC
T4 sequence (P08050 255-382): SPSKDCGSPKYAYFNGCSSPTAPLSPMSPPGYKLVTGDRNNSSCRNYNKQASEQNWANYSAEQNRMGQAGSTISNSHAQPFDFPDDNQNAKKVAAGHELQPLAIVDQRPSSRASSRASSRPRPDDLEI
T2 sequence (P08050 255-382): as above

## RQPKIWFPNRRKPWKKRPRPDDLEI [alpha CT1]
[1]
  SPR interaction: levels of interaction with aCT1 comparable to the full Cx43 CT sequence
[2]
  SPR interaction: complete loss of aCT1 binding
[3]
  S368 phosphorylation in vitro: promoted S368 phosphorylation in vitro in a dose-dependent manner
[4]
  interaction with PKC-ε: no evidence for interaction between PKCE and alpha CT1
[5]
  EDC cross-linking to Cx43 CT: covalently linked by EDC to Cx43 CT in a concentration-dependent manner
